Results on 1 molecule are retold here after publication PMC9482650, “Quantitative fragmentomics allow affinity mapping of interactomes” (Nature Communications, 2022).

T1: PTPN4, P29074
T1 sequence (P29074 512-599, limits assumed, looked up): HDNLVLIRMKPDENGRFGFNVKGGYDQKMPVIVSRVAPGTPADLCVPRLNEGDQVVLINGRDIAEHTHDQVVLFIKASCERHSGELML

T2: LNX2_4, Q8N448
T2 sequence (Q8N448 595-690, limits assumed, looked up): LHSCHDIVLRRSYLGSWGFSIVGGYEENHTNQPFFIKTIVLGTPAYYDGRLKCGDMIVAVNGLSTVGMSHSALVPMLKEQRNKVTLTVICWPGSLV

T3: SHROOM4, Q9ULL8
T3 sequence (Q9ULL8 5-102, limits assumed, looked up): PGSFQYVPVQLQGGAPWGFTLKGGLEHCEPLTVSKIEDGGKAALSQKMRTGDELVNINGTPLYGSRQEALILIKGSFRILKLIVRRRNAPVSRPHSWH

T4: USH1C_1, Q9Y6N9
T4 sequence (Q9Y6N9 82-179, limits assumed, looked up): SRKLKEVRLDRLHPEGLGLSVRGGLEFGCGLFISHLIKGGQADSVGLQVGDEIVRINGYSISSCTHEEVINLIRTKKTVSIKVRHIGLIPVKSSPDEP

T5: PDZD4, Q76G19
T5 sequence (Q76G19 125-224, limits assumed, looked up): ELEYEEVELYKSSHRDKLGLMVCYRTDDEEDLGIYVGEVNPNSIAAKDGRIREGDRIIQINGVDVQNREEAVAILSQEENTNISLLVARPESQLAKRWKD

T6: NHERF1_2, O14745
T6 sequence (O14745 149-244, limits assumed, looked up): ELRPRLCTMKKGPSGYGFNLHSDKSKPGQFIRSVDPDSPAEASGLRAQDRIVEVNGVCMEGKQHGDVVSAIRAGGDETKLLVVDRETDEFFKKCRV

T7: SNTB2, Q13425
T7 sequence (Q13425 110-208, limits assumed, looked up): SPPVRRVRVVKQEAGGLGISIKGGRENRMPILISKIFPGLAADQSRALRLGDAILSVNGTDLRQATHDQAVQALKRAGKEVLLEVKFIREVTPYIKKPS

T8: SYNPO2L, Q9H987
T8 sequence (Q9H987 1-98, limits assumed, looked up): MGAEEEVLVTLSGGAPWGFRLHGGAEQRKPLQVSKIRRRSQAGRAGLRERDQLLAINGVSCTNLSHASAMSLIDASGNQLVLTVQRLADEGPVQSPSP

T9: RGS12, O14924
T9 sequence (O14924 17-108, limits assumed, looked up): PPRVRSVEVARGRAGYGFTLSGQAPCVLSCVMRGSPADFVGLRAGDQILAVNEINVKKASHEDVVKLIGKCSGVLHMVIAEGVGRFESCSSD

T10: PDZD2_4, O15018
T10 sequence (O15018 723-823, limits assumed, looked up): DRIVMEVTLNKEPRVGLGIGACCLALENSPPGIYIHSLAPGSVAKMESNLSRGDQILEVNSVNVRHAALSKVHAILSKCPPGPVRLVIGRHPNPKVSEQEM

T11: PDZD2_5, O15018
T11 sequence (O15018 2617-2716, limits assumed, looked up): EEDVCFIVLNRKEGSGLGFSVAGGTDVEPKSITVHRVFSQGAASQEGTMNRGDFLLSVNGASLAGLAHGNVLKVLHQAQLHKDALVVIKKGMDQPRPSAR

T12: PTPN13_5, Q12923
T12 sequence (Q12923 1877-1975, limits assumed, looked up): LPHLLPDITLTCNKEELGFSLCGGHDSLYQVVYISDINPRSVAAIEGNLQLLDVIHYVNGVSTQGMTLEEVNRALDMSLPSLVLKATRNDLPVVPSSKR

T13: PDZD7_1, Q9H5P4
T13 sequence (Q9H5P4 81-178, limits assumed, looked up): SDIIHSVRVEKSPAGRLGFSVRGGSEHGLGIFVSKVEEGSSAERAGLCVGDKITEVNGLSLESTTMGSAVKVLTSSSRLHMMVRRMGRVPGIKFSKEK

By pKd is commonly meant the Kd on a negative log10 scale, so that one unit is a factor of ten.

NHERF4_3, Q86UT5, sequence (Q86UT5 325-412): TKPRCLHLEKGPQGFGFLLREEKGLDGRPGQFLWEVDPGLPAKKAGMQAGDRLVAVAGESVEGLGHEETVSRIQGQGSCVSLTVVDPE
LMO7, Q8WWI1, sequence (Q8WWI1 1037-1138): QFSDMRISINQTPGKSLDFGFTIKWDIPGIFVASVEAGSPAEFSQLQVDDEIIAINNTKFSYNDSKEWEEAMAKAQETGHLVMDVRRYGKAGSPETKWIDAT
MAGIX, Q9H6Y5, sequence (Q9H6Y5 118-211): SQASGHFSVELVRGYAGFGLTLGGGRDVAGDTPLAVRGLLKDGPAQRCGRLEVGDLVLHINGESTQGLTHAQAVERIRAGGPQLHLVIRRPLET
CARD14, Q9BXL6, sequence (Q9BXL6 558-663): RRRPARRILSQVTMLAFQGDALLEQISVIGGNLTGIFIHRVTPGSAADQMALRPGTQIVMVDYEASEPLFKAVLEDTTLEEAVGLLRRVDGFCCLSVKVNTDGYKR
MAST3, O60307, sequence (O60307 945-1048): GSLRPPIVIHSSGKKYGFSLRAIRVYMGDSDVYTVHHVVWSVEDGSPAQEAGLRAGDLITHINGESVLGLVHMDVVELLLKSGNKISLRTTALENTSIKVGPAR

One assay addresses T1, PTPN4, P29074. Description: holdup assay. Further details: key: below the threshold = too weak to quantify, mostly under pKd 3.1 to 4. The settings on record: plain residues with an end cap or a label only (N-terminal biotin on a linker: ttds).
On to RLQRRRETQV [HPV18-E6, P06463], for which the negative logarithm of the Kd (pKd) was determined as 4.62.

Another assay deals with T2, LNX2_4, Q8N448. Briefly: holdup assay. Particulars: plain residues with an end cap or a label only (N-terminal biotin on a linker: ttds). Also on record: key: below the threshold = too weak to quantify, mostly under pKd 3.1 to 4.
Regarding RLQRRRETQV [HPV18-E6, P06463], the pKd entry is on record as “below the threshold”.

Another assay deals with PARD3B_2, Q8TEW8. Briefly: holdup assay. Also on record: key: below the threshold = too weak to quantify, mostly under pKd 3.1 to 4. Particulars: plain residues with an end cap or a label only (N-terminal biotin on a linker: ttds).
PARD3B_2, Q8TEW8, sequence (Q8TEW8 376-471): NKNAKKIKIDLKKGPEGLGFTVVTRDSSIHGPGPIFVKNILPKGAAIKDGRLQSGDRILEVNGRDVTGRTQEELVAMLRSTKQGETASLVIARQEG
In the case of RLQRRRETQV [HPV18-E6, P06463], the negative-log Kd (pKd) entry is “below the threshold”.

Another assay concerns the target T3, SHROOM4, Q9ULL8. Briefly: holdup assay. Further details: key: below the threshold = too weak to quantify, mostly under pKd 3.1 to 4. The settings on record: plain residues with an end cap or a label only (N-terminal biotin on a linker: ttds).
Consider RLQRRRETQV [HPV18-E6, P06463], for which the negative-log Kd (pKd) result is recorded as “below the threshold”.

The target of a further assay is T4, USH1C_1, Q9Y6N9. Description: holdup assay. Further details: key: below the threshold = too weak to quantify, mostly under pKd 3.1 to 4. Particulars: plain residues with an end cap or a label only (N-terminal biotin on a linker: ttds).
For the molecule RLQRRRETQV [HPV18-E6, P06463], the negative-log Kd (pKd) result is “below the threshold”.

The next assay has as its target T5, PDZD4, Q76G19. Description: holdup assay. The settings on record: plain residues with an end cap or a label only (N-terminal biotin on a linker: ttds). Also on record: key: below the threshold = too weak to quantify, mostly under pKd 3.1 to 4.
Consider RLQRRRETQV [HPV18-E6, P06463], for which the negative-log Kd (pKd) entry was “below the threshold”.

The next assay concerns the target DLG2_1, Q15700. Briefly: holdup assay. Further details: key: below the threshold = too weak to quantify, mostly under pKd 3.1 to 4. Particulars: plain residues with an end cap or a label only (N-terminal biotin on a linker: ttds).
On to RLQRRRETQV [HPV18-E6, P06463], for which the pKd turned out to be 5.11.

A further assay concerns the target NHERF4_3, Q86UT5. Description: holdup assay. Further details: key: below the threshold = too weak to quantify, mostly under pKd 3.1 to 4. Particulars: plain residues with an end cap or a label only (N-terminal biotin on a linker: ttds).
On to RLQRRRETQV [HPV18-E6, P06463], for which the negative logarithm of the Kd (pKd) result is “below the threshold”.

The target in the next assay is PDZRN4_2, Q6ZMN7. Description: holdup assay. Particulars: plain residues with an end cap or a label only (N-terminal biotin on a linker: ttds). Also on record: key: below the threshold = too weak to quantify, mostly under pKd 3.1 to 4.
PDZRN4_2, Q6ZMN7, sequence (Q6ZMN7 389-498): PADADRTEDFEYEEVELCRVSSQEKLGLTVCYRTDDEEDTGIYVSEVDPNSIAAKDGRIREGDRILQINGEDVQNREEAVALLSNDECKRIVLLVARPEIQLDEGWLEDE
On to RLQRRRETQV [HPV18-E6, P06463], for which the negative-log Kd (pKd) result is on record as “below the threshold”.

A further assay concerns the target MAST3, O60307. Description: holdup assay. Further details: key: below the threshold = too weak to quantify, mostly under pKd 3.1 to 4. The settings on record: plain residues with an end cap or a label only (N-terminal biotin on a linker: ttds).
On to RLQRRRETQV [HPV18-E6, P06463], for which the pKd entry is given as “below the threshold”.

A further assay deals with T6, NHERF1_2, O14745. Description: holdup assay. Also on record: key: below the threshold = too weak to quantify, mostly under pKd 3.1 to 4. Particulars: plain residues with an end cap or a label only (N-terminal biotin on a linker: ttds).
Consider RLQRRRETQV [HPV18-E6, P06463], for which the negative-log Kd (pKd) entry was “below the threshold”.

The next assay addresses CARD14, Q9BXL6. Description: holdup assay. Particulars: plain residues with an end cap or a label only (N-terminal biotin on a linker: ttds). Further details: key: below the threshold = too weak to quantify, mostly under pKd 3.1 to 4.
With RLQRRRETQV [HPV18-E6, P06463], the pKd result is given as “below the threshold”.

In another assay the target is T7, SNTB2, Q13425. Description: holdup assay. Also on record: key: below the threshold = too weak to quantify, mostly under pKd 3.1 to 4. The settings on record: plain residues with an end cap or a label only (N-terminal biotin on a linker: ttds).
For the molecule RLQRRRETQV [HPV18-E6, P06463], the pKd worked out at 4.58.

Another assay addresses T8, SYNPO2L, Q9H987. Briefly: holdup assay. Further details: key: below the threshold = too weak to quantify, mostly under pKd 3.1 to 4. Particulars: plain residues with an end cap or a label only (N-terminal biotin on a linker: ttds).
RLQRRRETQV [HPV18-E6, P06463]: the pKd result is recorded as “below the threshold”.

Another assay has as its target T9, RGS12, O14924. Description: holdup assay. Also on record: key: below the threshold = too weak to quantify, mostly under pKd 3.1 to 4. Particulars: plain residues with an end cap or a label only (N-terminal biotin on a linker: ttds).
RLQRRRETQV [HPV18-E6, P06463]: the negative-log Kd (pKd) was 4.35.

In another assay the target is T10, PDZD2_4, O15018. Description: holdup assay. Particulars: plain residues with an end cap or a label only (N-terminal biotin on a linker: ttds). Also on record: key: below the threshold = too weak to quantify, mostly under pKd 3.1 to 4.
Consider RLQRRRETQV [HPV18-E6, P06463], for which the negative-log Kd (pKd) result is reported as “below the threshold”.

A further assay concerns the target LMO7, Q8WWI1. Description: holdup assay. Particulars: plain residues with an end cap or a label only (N-terminal biotin on a linker: ttds). Further details: key: below the threshold = too weak to quantify, mostly under pKd 3.1 to 4.
Turning to RLQRRRETQV [HPV18-E6, P06463], the negative-log Kd (pKd) entry was “below the threshold”.

The target of the next assay is T11, PDZD2_5, O15018. Description: holdup assay. Further details: key: below the threshold = too weak to quantify, mostly under pKd 3.1 to 4. The settings on record: plain residues with an end cap or a label only (N-terminal biotin on a linker: ttds).
Take RLQRRRETQV [HPV18-E6, P06463]: the pKd result is “below the threshold”.

A further assay addresses T12, PTPN13_5, Q12923. Briefly: holdup assay. Also on record: key: below the threshold = too weak to quantify, mostly under pKd 3.1 to 4. Particulars: plain residues with an end cap or a label only (N-terminal biotin on a linker: ttds).
On to RLQRRRETQV [HPV18-E6, P06463], for which the negative-log Kd (pKd) result is “below the threshold”.

A further assay has as its target T13, PDZD7_1, Q9H5P4. Description: holdup assay. Also on record: key: below the threshold = too weak to quantify, mostly under pKd 3.1 to 4. Particulars: plain residues with an end cap or a label only (N-terminal biotin on a linker: ttds).
For RLQRRRETQV [HPV18-E6, P06463], the negative logarithm of the Kd (pKd) result is “below the threshold”.

The target of another assay is PDLIM4, P50479. Briefly: holdup assay. Also on record: key: below the threshold = too weak to quantify, mostly under pKd 3.1 to 4. The settings on record: plain residues with an end cap or a label only (N-terminal biotin on a linker: ttds).
PDLIM4, P50479, sequence (P50479 1-83): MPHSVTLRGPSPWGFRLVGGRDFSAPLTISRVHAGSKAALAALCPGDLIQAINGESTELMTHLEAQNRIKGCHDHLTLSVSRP
Consider RLQRRRETQV [HPV18-E6, P06463], for which the pKd result is “below the threshold”.

For another assay, the target named is DVL2, O14641. Briefly: holdup assay. Further details: key: below the threshold = too weak to quantify, mostly under pKd 3.1 to 4. The settings on record: plain residues with an end cap or a label only (N-terminal biotin on a linker: ttds).
DVL2, O14641, sequence (O14641 260-359): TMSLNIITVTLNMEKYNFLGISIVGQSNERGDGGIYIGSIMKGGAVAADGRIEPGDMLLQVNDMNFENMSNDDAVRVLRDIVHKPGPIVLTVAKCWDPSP
As for RLQRRRETQV [HPV18-E6, P06463], the pKd entry is “below the threshold”.

The next assay concerns the target MAGIX, Q9H6Y5. Description: holdup assay. Further details: key: below the threshold = too weak to quantify, mostly under pKd 3.1 to 4. The settings on record: plain residues with an end cap or a label only (N-terminal biotin on a linker: ttds).
For RLQRRRETQV [HPV18-E6, P06463], the negative-log Kd (pKd) entry is “below the threshold”.
